The record followed here is the supplement of paper PMC10724198.

± gives the standard deviation of the averaged measurements.

For series [1], the system named is Saccharomyces cerevisiae. In words: protein stability index of tFT-peptide fusion (C-terminal peptide) (PSI (0-1 scale)); higher = more stable (slower turnover). On the procedure:
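MPS profiling in S. cerevisiae of the tFT-X12 degron library: putative degron peptides plus stable controls, 12 aa, fused to the C-terminus of a sfGFP-mCherry timer. Cells are FACS-sorted into 8 mCherry/sfGFP bins and deep-sequenced. PSI runs from 0 (unstable) to 1 (stable). Backgrounds are wild type, das1Δ and doa10Δ at 30 °C, and wild type, das1Δ, cdc34-1 and cdc53-1 at 37 °C; 2-3 technical replicates each.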

Series [2] has as its system Saccharomyces cerevisiae. The description is as above. The note with it: genetic background: wild type; temperature: 30 C.
Setting [3] is: genetic background: cdc34-1, temperature: 37 C.
[4] abbreviates: genetic background: cdc53-1, temperature: 37 C.
Where [5] appears, read: genetic background: das1 deletion, temperature: 30 C.
Setting [6] is: genetic background: das1 deletion, temperature: 37 C.
[7] abbreviates: genetic background: doa10 deletion, temperature: 30 C.
Setting [8] is: genetic background: wild type, temperature: 30 C.
Where [9] appears, read: genetic background: wild type, temperature: 37 C.
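Further: PSI is a weighted mean of sequencing reads over stability bins, variants kept only with over 10 reads, mCherry proximal and sfGFP distal, peptide attached via GGGS linker.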

For the sequence GPPVPLSPPLSP, the protein stability index in the series with Saccharomyces cerevisiae [1] (setting [3]) worked out at 0.701 ± 0.042; in the series on Saccharomyces cerevisiae [1] (setting [4]), 0.695 ± 0.045; with Saccharomyces cerevisiae [1] (setting [5]) it was 0.35 ± 0.024; in the series with Saccharomyces cerevisiae [1] (setting [6]), 0.5534 ± 0.0029; with Saccharomyces cerevisiae [1] (setting [7]), 0.33 ± 0.0094; in the series on Saccharomyces cerevisiae [1] (setting [8]), 0.341 ± 0.014. In the series on Saccharomyces cerevisiae [1] (setting [9]), this sequence showed a protein stability index of 0.532 ± 0.039.

KQSGLQIKRRKL: the protein stability index in the series on Saccharomyces cerevisiae [1] (setting [3]) was found to be 0.711 ± 0.043; in the series on Saccharomyces cerevisiae [1] (setting [4]), 0.75156 ± 0.00069; with Saccharomyces cerevisiae [1] (setting [5]) it was 0.617 ± 0.019; in the series with Saccharomyces cerevisiae [1] (setting [6]) it was 0.7734 ± 0.0051; in the series with Saccharomyces cerevisiae [1] (setting [7]) it was 0.639 ± 0.07; in the series on Saccharomyces cerevisiae [1] (setting [8]), 0.7 ± 0.056. The protein stability index with Saccharomyces cerevisiae [1] (setting [9]) stood at 0.763 ± 0.061. In the case of LVCSLLVPSSFF, the protein stability index in the series on Saccharomyces cerevisiae [1] (setting [3]) turned out to be 0.679 ± 0.0081; in the series on Saccharomyces cerevisiae [1] (setting [4]), 0.7 ± 0.074; in the series on Saccharomyces cerevisiae [1] (setting [5]) it was 0.634 ± 0.016; in the series on Saccharomyces cerevisiae [1] (setting [6]), 0.722 ± 0.0063; with Saccharomyces cerevisiae [1] (setting [7]) it was 0.667 ± 0.035; with Saccharomyces cerevisiae [1] (setting [8]) it was 0.645 ± 0.011. The sequence further gave a protein stability index with Saccharomyces cerevisiae [1] (setting [9]) of 0.7039 ± 0.0056. As for PPPPPPPAPASP, the protein stability index with Saccharomyces cerevisiae [1] (setting [5]) amounted to 0.665 ± 0.13; in the series on Saccharomyces cerevisiae [1] (setting [6]), 0.68 ± 0.048; with Saccharomyces cerevisiae [1] (setting [7]) it was 0.553 ± 0.17; in the series on Saccharomyces cerevisiae [1] (setting [8]), 0.635 ± 0.089; in the series on Saccharomyces cerevisiae [1] (setting [9]) it was 0.629 ± 0.032. Take QRAVGLANFTIK: the protein stability index with Saccharomyces cerevisiae [1] (setting [3]) amounted to 0.672 ± 0.065; in the series with Saccharomyces cerevisiae [1] (setting [4]), 0.7512 ± 0.0062; with Saccharomyces cerevisiae [1] (setting [5]) it was 0.647 ± 0.043; in the series with Saccharomyces cerevisiae [1] (setting [6]), 0.7328 ± 0.0028; in the series with Saccharomyces cerevisiae [1] (setting [7]), 0.646 ± 0.048; with Saccharomyces cerevisiae [1] (setting [8]) it was 0.669 ± 0.032. In the series with Saccharomyces cerevisiae [1] (setting [9]), this sequence returned a protein stability index of 0.709 ± 0.018. On to RPPPYSPRLFHN, for which the protein stability index with Saccharomyces cerevisiae [1] (setting [3]) worked out at 0.469 ± 0.0049; with Saccharomyces cerevisiae [1] (setting [4]), 0.706 ± 0.031; in the series on Saccharomyces cerevisiae [1] (setting [5]), 0.67 ± 0.031; with Saccharomyces cerevisiae [1] (setting [6]), 0.75 ± 0.01; with Saccharomyces cerevisiae [1] (setting [7]), 0.0941 ± 0.065; with Saccharomyces cerevisiae [1] (setting [8]), 0.129 ± 0.023. Further, the protein stability index in the series with Saccharomyces cerevisiae [1] (setting [9]) amounted to 0.179 ± 0.067.

As to RSRNSEYILVYN, the protein stability index in the series with Saccharomyces cerevisiae [1] (setting [3]) was 0.655 ± 0.018; with Saccharomyces cerevisiae [1] (setting [4]) it was 0.672 ± 0.039; with Saccharomyces cerevisiae [1] (setting [5]) it was 0.397 ± 0.045; in the series with Saccharomyces cerevisiae [1] (setting [6]), 0.6343 ± 0.0031; in the series with Saccharomyces cerevisiae [1] (setting [7]), 0.318 ± 0.012; with Saccharomyces cerevisiae [1] (setting [8]) it was 0.391 ± 0.014. This sequence came in with a protein stability index in the series with Saccharomyces cerevisiae [1] (setting [9]) of 0.66 ± 0.025. For the sequence TGGGGRVSLGGG, the protein stability index in the series with Saccharomyces cerevisiae [1] (setting [3]) is 0.337 ± 0.053; with Saccharomyces cerevisiae [1] (setting [4]) it was 0.427 ± 0.032; with Saccharomyces cerevisiae [1] (setting [5]), 0.384 ± 0.021; in the series on Saccharomyces cerevisiae [1] (setting [6]) it was 0.44 ± 0.022; in the series on Saccharomyces cerevisiae [1] (setting [7]) it was 0.374 ± 0.013; in the series on Saccharomyces cerevisiae [1] (setting [8]) it was 0.372 ± 0.0084. Moreover, in the series with Saccharomyces cerevisiae [1] (setting [9]), the protein stability index amounted to 0.416 ± 0.044. VFYWGGVLCGWG: the protein stability index in the series with Saccharomyces cerevisiae [1] (setting [3]) worked out at 0.337 ± 0.035; in the series on Saccharomyces cerevisiae [1] (setting [4]) it was 0.502 ± 0.074; in the series on Saccharomyces cerevisiae [1] (setting [5]) it was 0.309 ± 0.03; with Saccharomyces cerevisiae [1] (setting [6]), 0.514 ± 0.014; in the series with Saccharomyces cerevisiae [1] (setting [7]) it was 0.297 ± 0.019; in the series on Saccharomyces cerevisiae [1] (setting [8]), 0.326 ± 0.036. The protein stability index in the series with Saccharomyces cerevisiae [1] (setting [9]) is 0.439 ± 0.027. For the sequence WLISLLVQPVFL, the protein stability index was 0.295 ± 0.0052 in the series with Saccharomyces cerevisiae [1] (setting [3]); 0.3167 ± 0.0022 with Saccharomyces cerevisiae [1] (setting [4]); 0.276 ± 0.029 in the series with Saccharomyces cerevisiae [1] (setting [5]); 0.4053 ± 0.0021 in the series with Saccharomyces cerevisiae [1] (setting [6]); 0.233 ± 0.0031 in the series on Saccharomyces cerevisiae [1] (setting [7]); 0.273 ± 0.02 with Saccharomyces cerevisiae [1] (setting [8]). In the series with Saccharomyces cerevisiae [1] (setting [9]), this sequence had a protein stability index of 0.37 ± 0.0047. Sequence YHPPLTIQSLGH returned a protein stability index in the series on Saccharomyces cerevisiae [2] of 0.694 ± 0.029. In the series with Saccharomyces cerevisiae [2], YIGLPVSALTIF yielded a protein stability index of 0.574 ± 0.1. The same measure, in the same setting: the figure for YILSSFPSCLVL is 0.64 ± 0.034. In the case of YINRKKKKINKT, the protein stability index in the series with Saccharomyces cerevisiae [2] was 0.675 ± 0.066.

As for YKGGDEVKTKKK, the protein stability index with Saccharomyces cerevisiae [2] is 0.656 ± 0.035. In turn, YKRRYTKNQIRK showed a protein stability index in the series with Saccharomyces cerevisiae [2] of 0.666 ± 0.054. As for YKSKQKAQQKAK, in the series on Saccharomyces cerevisiae [2], the protein stability index amounted to 0.64 ± 0.13. The sequence YLFSLSSSLFIL showed a protein stability index in the series on Saccharomyces cerevisiae [2] of 0.56 ± 0.0085.

In the case of YLPLPPLTPPPR, the protein stability index with Saccharomyces cerevisiae [2] came to 0.776 ± 0.036. Sequence YLPSTAHSAHPP yielded a protein stability index in the series on Saccharomyces cerevisiae [2] of 0.737 ± 0.045. On the same count and under the same terms, the figure for YLQPSGSRPGAK is 0.715 ± 0.014. In turn, YLRSMIPKELAV had a protein stability index in the series with Saccharomyces cerevisiae [2] of 0.605 ± 0.023. YMIPVPFSNLCL yielded a protein stability index in the series with Saccharomyces cerevisiae [2] of 0.66 ± 0.011.

On to YMSHPHGPLCLS, for which the protein stability index in the series with Saccharomyces cerevisiae [2] came to 0.75 ± 0.21. In the case of YPAVNLVPPPDV, the protein stability index in the series with Saccharomyces cerevisiae [2] is 0.675 ± 0.013. YPGPFTGCSKIQ: the protein stability index in the series with Saccharomyces cerevisiae [2] amounted to 0.676 ± 0.069.

In the series with Saccharomyces cerevisiae [2], YPGVSRCGTRWV came in with a protein stability index of 0.643 ± 0.046. The sequence YPHAGSTSLLLF displayed a protein stability index with Saccharomyces cerevisiae [2] of 0.685 ± 0.0073.

Consider YPLRVSRCWSPP, for which, in the series with Saccharomyces cerevisiae [2], the protein stability index came out at 0.773 ± 0.1. The same measure, in the same setting: the result for YPPGSPVPPGLP reads 0.671 ± 0.0076; that for YPRGFPTLSYSS, 0.727 ± 0.023; that for YPRPIPSISRTS, 0.731 ± 0.053. Sequence YQAVRGRVFVAL returned a protein stability index in the series with Saccharomyces cerevisiae [2] of 0.638 ± 0.044. For the sequence YQFGFLPAFPAC, the protein stability index with Saccharomyces cerevisiae [2] was 0.7 ± 0.013. Consider YRARRRPPPSPP, for which, in the series with Saccharomyces cerevisiae [2], the protein stability index is 0.682 ± 0.045. YREPKISEMLQE yielded a protein stability index in the series on Saccharomyces cerevisiae [2] of 0.621 ± 0.017. The sequence YRIWFSSFLHPT yielded a protein stability index in the series with Saccharomyces cerevisiae [2] of 0.741 ± 0.18. In the case of YRPPFPAALFSE, the protein stability index in the series with Saccharomyces cerevisiae [2] was 0.6962 ± 0.0034. Sequence YRRASGGTVEDM came in with a protein stability index with Saccharomyces cerevisiae [2] of 0.721 ± 0.024. In the case of YRSPPPLRGLIP, the protein stability index with Saccharomyces cerevisiae [2] was 0.711 ± 0.088. For the sequence YRTCLHRGRQML, the protein stability index in the series with Saccharomyces cerevisiae [2] came out at 0.68188 ± 0.00019. For YRTPCPPLSPHS, in the series with Saccharomyces cerevisiae [2], the protein stability index is 0.719 ± 0.062. YRVFTANYEYEQ yielded a protein stability index in the series with Saccharomyces cerevisiae [2] of 0.724 ± 0.023. Sequence YSGFVVGASDTL yielded a protein stability index with Saccharomyces cerevisiae [2] of 0.601 ± 0.18. Turning to YSHSRVNPDAWG, the protein stability index with Saccharomyces cerevisiae [2] was 0.669 ± 0.11. The sequence YSRGVSGSDKFP displayed a protein stability index in the series with Saccharomyces cerevisiae [2] of 0.747 ± 0.16. Same read-out and setting: the figure for YSVSAALPREFR is 0.773 ± 0.062; for YTLPVHPAFVFP it is 0.683 ± 0.071; for YTPDFPTIVSFI it is 0.694 ± 0.14. As for YTSTSTILRPFP, the protein stability index in the series on Saccharomyces cerevisiae [2] stood at 0.676 ± 0.078. Consider YVAGECVFVCWE, for which the protein stability index with Saccharomyces cerevisiae [2] worked out at 0.657 ± 0.04. On the same count and under the same terms, the figure for YVARERWEGCRI is 0.7 ± 0.0077. Same read-out and setting: the figure for YVGAENRGVQGW is 0.723 ± 0.016. In the case of YVKHTVKVSGHK, the protein stability index in the series with Saccharomyces cerevisiae [2] came out at 0.665 ± 0.0098. In turn, YVRCSVKCHILT yielded a protein stability index with Saccharomyces cerevisiae [2] of 0.609 ± 0.029. YWFVFGEFSGGR came in with a protein stability index in the series with Saccharomyces cerevisiae [2] of 0.716 ± 0.042.

Sequence YWPPIRSILPQY displayed a protein stability index in the series with Saccharomyces cerevisiae [2] of 0.67 ± 0.033. Consider YYAGFTAFGSLA, for which, in the series with Saccharomyces cerevisiae [2], the protein stability index was found to be 0.709 ± 0.079. The sequence YYVGLHSFSILQ returned a protein stability index in the series with Saccharomyces cerevisiae [2] of 0.729 ± 0.076.
